Assay: protease stability score; higher = more stable; yeast display proteolysis, trypsin and chymotrypsin;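 further: relative to predicted unfolded state with 0 unfolded-like and 1 meaning tenfold more protease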
With “SEEEKLWHEIIRRILHSWDTGDEDTLNELIDPNARLIIDVNGRIIRRHGWEEMHEFIEKVRRDLGADHVHFDHINIQGNKVETDVTIEIGDKKMRSHLIIIVIDGQIHELKIIHR” the protease stability score was 1.83. “SEEEETLKRLAHHMYESYITGDERVIKHLVDPNARSRIGEFDDHGREATEELIRRIDHVHHIDIRDMKIQGNWLHLHVRVDGVVDGKRTEHDMEIIVLKVDGKWIVHSMIQR” showed a protease stability score of 1.05. Sequence “DEEYDIAEEILHLLVELILTGDEHEILRYADPNVRLIIGDKDIHGMDWVSRFNMHLRLDDMKWELKRAHVYNGVIDNRGHLVMHGEIDGRHDTIKRETRILINKVNGRWNIREILIH” has a protease stability score of 0.653. Sequence “SEVERLLREILKLVQHAYETGDEETITELVDPHARMDINGKELHGRDMLHLLLRRIDHEHMRVEMKSVEIQGEWAISRGEEQVHVHVNGKKFDLVINSRVVLHKVDGQWVVRSLFYK” has a protease stability score of 0.787. With “DEEDEHLHQFLEDFKHNLKTGNFEAISKNADPHVRVIFNGRRFHGMENVKRLWEELGVDHVRIDHFELIDGRIDLNTTIEQGDKHRRTRLHILIVNGRIKSIHIHFE” the protease stability score was 1.16. “SEEERQSREFFKKWIHYMLTGDEHQIHTLADPNVRVVINGKEHHGRERLYELVLEFHHRLQNATSRVHTQDSVVIDGRLELHMELRVHQGDKEDTFQIRQLVVKIDGVWHSKSFEVE” showed a protease stability score of 1.61. Sequence “NELEEEAHRKMEKVLRHLQTGDEDSLHRLLDPNVRLIVGDKEMHGRERAVEVLSRILKEMGVKHIKLRRFSVFNGVAHTDSELNQGEYVHNLHLVIEKVDGQWVMRSLHIE” has a protease stability score of 1.41. Sequence “SESEEASEWVIKIWRDTMETGDEKTLNHLLDPSVRLVVNGQEIHGRESMIKEFRRFKNVKLHDIKHHDIDMIGDKIIIHGTIHGEINGREVTVEQEIISIKVNGKWLTRSLILH” has a protease stability score of 1.64. “DDHEEEVLRLLHTVLRIMWTGDEDELHRLADPNMKMWINGRKFHGRETAIETLKRMVNEIRIHEIHVKDFDVIGEYAHVDTRVRGTINGKETILNERIIVLVIDGRIKSIRIDLK” gave a protease stability score of 2.13. In the case of “DQDDHMAKEFHKLFFDAIRTGDEDLLSMLLDPHVLMNIGNFHRHGRELVVDMQRHLYEKHGFRIHNAHVERWHIFENRLIYHLKVDGKVDGKRHVMEFDLTILKVDGVWIITSITIK”, the protease stability score is reported as 1.44. “DEDEERVKLASELYTHIMHTGDERLTKEFFDPRVRSDINGRELHGREIITEMVSRYKNMTLHSHREEVQGEWAFIDGRMEYGDKEWKIHIITLKVNGRWVVTEIEFH” showed a protease stability score of 0.778. For “SEEEQHAKHMSHLISHVLKTGDEERWKELMDPHTRLIVGDKEFHGREALHELKRRVDHMKDVLIHSVEVQGNKADFDVEVHVKVDGRHERLKMRWIVDKVNGRWVQSEIIIH”, the protease stability score was 1.65. For “DEDHDLQEEILKRFEHLFRTGDWKELHHLLDPHARTRWDGRTRHGRDQVLDVMREMGADHLTIHHYNIQGEKIRIDFDLEIGDKRHKLDIHVSKINGKWIVKHIEIDTR”, the protease stability score was 1.03. With “SEEDKATEKFLRELSEWHRTGDEEHFVRNLDPHVRVDIDGVELHGREEVERHLRKRWEKLGVDRFDSELRFKHIHVQGDKIEIHIRIILDINGVHRNVDVEIIALKVNGRWLIQSYHIR” the protease stability score was 2.24. Sequence “DEEKKANHFNKEFDRNVQRNNETELRKMVDPNARVNVGEQNYSGRNKMVKIITDWLRKYDKFTIDVRRIDVHGNRIFIDFEMVVVSNGQRRTTEIRVVVEEHNGRLHIRVWEIT” has a protease stability score of 1.03. In the case of “SEMEEVYKRWVDLFRHAMDTGNEDLHLHLLDPHVRININGVELIGRDDDRDHLERLRKELGVSRFEMRVRIRDVDIQGDKIRSETEFTVIFNGREIIIKTRLILEKVNGRWILRSLEYN”, the protease stability score is reported as 1.39. “DEEEKRAREQYKLMFHNLQTGDEDTLKKLMDPNVRLDINGQEHHGRENVVKFWEHFIRKLGVKHMEWKDRDVEITENHVNFHGYIIIDIDGQERRLHTIIILRKVDGKWVVESLVFK” gave a protease stability score of 2.23. “DEEEEEDRHAAEITIKVLLTGDEKKLQELADPHTRFIIWIDGRELRYIGRRDLVRVWREIIRKLGIDHLSLDDMRVIDGKIHLHETMNVDGKNISRRIINNVINGVNKHIEVNLS” showed a protease stability score of 1.17. Sequence “SEEEHVMVEIVRKLTEAKHTGDFKTEHELMDPHARIDINGVEIHGMEEWRHLYEEWRFIVHRTHVRHVHVQGDKVDLKGEFRGVIDYDGREIEYNTKVNLHLHKVDGRWQLHDVKTT” has a protease stability score of 0.552. “SEKERMIREMLEETMRSLKTGDEDSIHRLFDPHTRSEIDGKEYHGREEVSKWVRHARIHDFQLEDVRIQGNKAILIGVMHGRVDGRKFTTEVRIFSVKVDGQWVNENLELH” gave a protease stability score of 0.993. “TEIKHHVKEMADLFLENLLTGNEDILKKLMDPNALLVVGNKHIHGWEEMIKQWKDVRRHMRIEHVETEDIELQGDKAHIHVNIFGQINGKRKESHVRIHFEVFDGVLRRVEIDER” gave a protease stability score of 1.18. With “SEDRKFIKEMFEETFRRWETGDEDHIRRYVDPHTKLRILIDGREHTHHGREEFTKMMIDLSEQLGIKHLHIENLHIQGDKAELRGREEVGDKDEHVTIIAHKVNGQWTIETLHIEVR” the protease stability score was -0.376. Work on “DEEEERMQEKLHRYLHDLVTGDEEEFHKYADPHVKTRVGDKILHGREKAREFWHEIRIKDIKLDHKDIQGDFVRLHVRVHGRINGQDIDFRVEIFFRKINGRWIIESQEIN” yielded a protease stability score of 0.816. With “SEEEEEAERAIKLWIHNVLTGDEDSLTKLLDPHVKIIDYVNGVEINNHGREWVKHWLEHLRYDIIRIHEFRSQGDKVHVDGKSEGNYNGKHVETRVMFHLHVYNGVIKSVHIIHI” the protease stability score was 1.63. “SEHEKFSEKYFQIWVRAVRTGDEDTLRELIDPDDRLDVNGQNFHGWEQVNEHLLHFIRKIKNVRIEVHLEHHEVQGDKIHLDMTLHLNVDGRETRHKTEIIARKIDGRWVFTEFRIK” showed a protease stability score of 2.26. “DELEELIRKLAELFFEILRTGDEDKLRKLLDPHAKFTFIINGVIIDSIGRDFILKLHEDLWRRIKNVRMEYERVEVQGDKAYFRTRMNFNGKETETNLHLIIVDGKLKQESWEIE” showed a protease stability score of 0.738. Sequence “SESEEEARKVIERLFRAERTGDEDDVKHLLDPNVKIDWNGRKYHGRDDWAHYISHLGIDHSELIIKHLEYQGDKLRLHGILRYVIGDKTIEEEVFEHMQKINGRWRIREIHIK” has a protease stability score of 1.64. In the case of “DEEEERVRRIMKEFIESLLTGDFRILTELMDPNARLHVDGVELHGRETMRKFWKDRERELGVENFDAKQRDVRLINGKAHNDGELLINGQVTKWILRVEKVDGRWRLHHIELH”, the protease stability score is reported as 0.231. For “SEDHEEVRKVTKVYLELFETGDEEELMKLADPEVRLHINGRDLHGREWMERAIRELLEYYGVKHIESWTIHDITIQGDKAVMDTSVKIRVNGREHELKMHIYSRKFDGRWFLTSVRFH”, the protease stability score was 1.26. Sequence “SEEHQTAEKMLRILLHLFLTGDEDKFEHLLDPHVRLHVGDKEIHGRELASKKLHEMVRHLRVRDVHVDTLDIQGNKMHFDTRIDVEQGDKTYILRFHWYNEKVDGRWRIHLVHYD” has a protease stability score of 1.68. With “DEERKIVEKWANEFLQAQITGDEDWFREYADPTTRYNLHIGDYDLHLHGRELVLTFLHEILRKFKNIKIEIKRRNIQGEKTDIDGVENYNGVEHRVRIHLVVINGQLKSYTIKEH” the protease stability score was 0.604. “VEDLQLAEHVTRLLLHLVHTGDFDVMKELLDPNVRIHVDGQDYHGRDVWKHILDRFDYISVHHSEVKENDVQGNKVNIRVHTDVIFEYGDKRLRQRYDVVVIAQKINGRWIIELFSVR” gave a protease stability score of 1.22. “DEEEEREKELRERWEHFLKTGDWKKIEELADPHVRLDVGDKELVGRELFVEFIRRLLEHLGFNVFRINHIDLQGEKINMDVEREIGDKSTRVELHILKIDGQWILKRVIIN” gave a protease stability score of 1.82. “DEEEDHERRFLEELLRDWVTGDENKLDELFDPDARNYINGRRYHGREDVREVLKLLKDRIDHIEMTDIKDVKIQGDKMRFDTRVHLRQGDKTIRIKTHFVIWKVNGKWRMEAVVIV” showed a protease stability score of 1.02. Work on “DELTESVREFIEHFIRALETGDWHILHRLLDPHVKLNVNGVEFHGREIIVEFLREIRIHSFIVHHVRIQGDWIDIDGETDGVINGRRIRTRTRIHLHKIDGRWQIKSESVI” yielded a protease stability score of 2.09. “DEEEHEWRKVIHELLHAFMTGDWKRFLKLVDPHAKFLVDGQEMHGREVLKHYIDRIKNMRIEIRDETYDMVDGRMHSIFQLELTQGEYRHESYIEVIIKKFDGRWRVHEVDFEIR” gave a protease stability score of 2.18. With “DREKKEAEQLIRLINRYIQTGDEHSLSRLMDPHVLLQVGDKKDIGWEIIINKIKEMWEKFKGARFNLEMRDIHLQGDFAEIDVEFEILVNGQFDTLKTRFIIFKIDGRWVIRSLSLE” the protease stability score was 2.33. Work on “DEETEISRRALKIFLDTIHTGDPRELKENLDPSVRIIINGVHYHGRESFEHVLERVEKSAGVDRVHVELRDFRIYGDKVEVEVTNHFNGRTEIDHFILRKVNGRWYIHEVEFE” yielded a protease stability score of 2.18. With “SENEETAEDVIELVIEAWVTGDEDLFLSLLDPRVRLEVNGVHHHGRERVLEEIIKNLETLGVDHIEIRIREIKLIGEWVEIHGELIYRYNGVHERRDVEIIAFKFNGRWVLRSLRVR” the protease stability score was 1.82. “DELHHVLEIMLRELITAWRTGDERVLNELFDPHVLIVIGDKYYHGREFVTRWLRHIRIKHSEFHLRRIHIQGDYVHITGEFRIEGEFDGRENTVTHDSKIVTLKIDGRWTFHSIVLE” gave a protease stability score of 2.16. In the case of “DETEEEVREAIEKFIQDLHTGNWHAYNEMLDPNVRVIVGDKHLHGRERVLEWEEEFMRKVKGATYRIDHMDVIDGRINLHFRITIGDKSREFNVHSLKINGQWHTKEVRVNIL”, the protease stability score is reported as 1.06. Sequence “DEEEHHIKTLLELHWEIWKTGDEDRFRELADPNTKLIVNGREVIGRERVAKVIHDILRHMRFHDFTLERDKIYNGQVDLHGTEYGHINGKNIERTHVFHIVIVNGVLKSIELRIH” has a protease stability score of 1.01. Sequence “DEDEELSERATREFIENWKTGNFDDLMKLLDPNVKLDVGDKRHHGRERMVRSMVEILKHLGANVIDIHDTDVYDGRIDIHLRLEAENHHSILTIHIEKINGRWLIRSMEIK” has a protease stability score of 1.26. “DEDHKIVEHMVKLIIDSMHTGDEHSIRELFDPNTRMDVNGVDFHGWEHYHKRIEDLRKRADHVTIYIRDMKVINGQAHIHTEMRIDIGDKHLRHRVIIIVLKVDGRWVIEQVIFL” showed a protease stability score of 2.29. Sequence “SEREHEALRWMELIIDLWITGDEEFTHKLADPHAKYEYGDKVIHGMEEFTRIMNEWRIKRVHLHEFRFIGNFSHSNMHRRGNIDGVDVDTEITVTVVIVNGRISSISIEVR” has a protease stability score of 0.751. Sequence “REDEKFRDYATHWLEKYVRTGDENLMEELIDPDVRVHVNGQENHGMDEMRKWMLELRIEHIIIRRIEIHVYDGVIEINIDSETRVNFNGRKIRTKVHIHTETRKIDGRWSISHLELRFK” has a protease stability score of 1.07. Work on “DEDERFAEIAIRLMIEIIKTGDEREEDKLIDPHARLIVGDWLIHGRDELVRYLTHLRIEHLEIKTWEVVNGRVKLTTRIHLRINGRHHETDQVNIIEKVNGRWYMKLIEFK” yielded a protease stability score of 1.19. For “SEDEEASKEMLERLIESIKTGDWRHDSNMVDPHARFRVGDKEFHGRDDLEHLVKHLGIKHVEVQHVRTYGNKMELHGWERFNGREVRVELHFVKIDGQWVLTEYRVR”, the protease stability score was 0.616. For “SEEEELHDEHLKKIYTALLTGDFDTFRNMVDPHVRLDWNGVRLHGREVVVRTMIELGADHIEIKEVSFQGDKVDLHFREKVNGKEFRVRIEKQKFNGQWSISSEHQR”, the protease stability score was 1.14. With “EEERKEVKFAFDIWSELFLTGDEEDIHHLADPDVRLDINGKNIHGMELIHKIILHDILEWRLEVRVKHIEVQGDKAEIQMELKFRYNGREKHYKFRIIYKKFDGQWRYESIHMR” the protease stability score was 1.71.

— the NTF2 design screens of Basanta et al. (2020)
